Measurements reported in paper PMC1289080.

B1: sR6 CCA spacer (structured_RNA)
RNA: GGGACUGACCAGUGAUGACCC
B2: sR6 2-nt spacer GG (structured_RNA)
RNA: GGGACUGAGGGUGAUGACCC
B3: sR6 mut C'/D' (structured_RNA)
RNA: GGGACUUCGCAGUUCUGACCC
B4: sR6 LC (structured_RNA)
RNA: GGGACUGACCCGUGAUGACCC
B5: sR6 L2 (structured_RNA)
RNA: GGGACUGAGCAUUGAUGACCC
B6: sR47 mut C/D and C'/D' (structured_RNA)
RNA: GAUGAAGAUUCUGAGCUCGGCAGGUCCUUCGGAGUUCUGAGGAUCUUGAGUGCUUCUUCACCUU

Target: T1, L7Ae (Pyrococcus abyssi, UniProt P62008 1-123)
Assay: EMSA

Binding result, no binding:
B1
B2

Target: T1, L7Ae
Assay: EMSA
Remark: another data set of the same source

Binding result, no binding:
B3
B4
B5
B6
